Assay results from paper PMC7442695 (Nature, 2020).

molecular target: SARS-CoV-2 receptor binding domain (RBD; residues 331–524) (SARS-CoV-2, early isolate (GenBank …, UniProt P0DTC2); experiment: BLI

Binder	binding result
C121 monoclonal antibody (IgG) (antibody, V domains shown) VH: not shown VL: QSALTQPASVSGSPGQSITISCTGTSSDVGSYNLVSWYQQHPGKAPKLMIYEGSKRPSGVSNRFSGSKSGNTASLTISGLQAEDEADYYCCSYAGSSTLVFGGGTKLTVL	binds
C101 monoclonal antibody (IgG) (antibody, V domains shown) VH: QVQLVESGGGLIQPGGSLRLSCAASGFIVSSNYMSWVRQAPGKGLEWVSVIYSGGSTFYTDSVKGRFTISRDNSKNTLYLQMNSLRAEDTAVYYCVRDYGDFYFDYWGQGTLVTVSS VL: EIVLTQSPGTLSLSPGERATLSCRASQSVSSSYLAWYQQKPGQAPRLLIYGASSRATGIPDRFSGGGSETDFTLTISRLEPEDCAVYYCQQYGSSPRTFGQGTKVEIK	binds
C002 monoclonal antibody (IgG) (antibody, V domains shown) VH: EVQLVESGGGVVQPGRSLRLSCAASGFTFSIYGMHWVRQAPGKGLEWVAVISYDGSNKYYADSVKGRFTISRDNSKNTLYLQMNSLRAEDTAVYYCAKEGRPSDIVVVVAFDYWGQGTLVTVSS VL: not shown	binds
C009 monoclonal antibody (IgG) (antibody, V domains shown) VH: not shown VL: QSALTQPPSASGSPGQSVTISCTGTSSDVGGYNYVSWYQQHPGKAPKLMIYEVSKRPSGVPDRFSGSKSGNTASLTVSGLQAEDEAEYYCSSDAGSNNVVFGGGTKLTVL	binds
C119 monoclonal antibody (IgG) (antibody, V domains shown) VH: QVQLVQSGAEVKKPGASVKVSCKASGYTFTSYYMHWVRQAPGQGLEWMGIINPSGGSTSYAQKLQGRVTMTRDTSTSTVYMELSSLRSEDTAVYYCARANHETTMDTYYYYYYMDVWGKGTTVTVSS VL: QSALTQPASVSGSPGQSITISCTGTSSDVGGYKYVSWYQRHPGKAPKLMIYDVSNRPSGVSNRFSGSKSGNTASLTISGLQAEDEADYYCSSYTSSSTSVVFGGGTQLTVL	binds
